Target: monomeric actin (CaATP-G-actin) from rabbit muscle, unlabelled (rabbit, UniProt P68135 1-377)
Experiment: cell-based or functional assay

Kd from inhibition of barbed end growth (spectrin-actin seeds): 40 µM
Kd from inhibition of pointed end growth (gelsolin-actin seeds): 32 µM
Binder: VCPEGARVFNQITVQKAALEDSNG [Eps8 isolated predicted helix H5 (residues 765–788)]

Source: article PMC2879411, “Molecular Basis for the Dual Function of Eps8 on Actin Dynamics: Bundling and Capping” (PLoS Biology, 2010)
